# Measured values from PMC5953937.
# Molecular target: lipin 1 (UniProt Q14693)
# Test: co-immunoprecipitation (presumed)
# Conditions: reference: wild-type Tip60; sites S86
substance,measurement,value
Tip60 (from UniProt Q92993) S86A-Tip60,binding against the reference,weaker
